Data reported in US20240261333A1 (published 2024).

Experiments:
Test in all cases: co-IP, anti-FLAG, lysate of cells with C-FLAG B3GNT2; mass spectrometry
DDX5 = molecular target: T1, DDX5 (human, UniProt P17844 1-614)
T1 construct: also called NP_001307526.1

FAU = FAU (human, UniProt P62861 75-133)
KRT6B = molecular target: T2, KRT6B (human, UniProt P04259 2-564)
T2 construct: also called NP_00546.2
T2 sequence (looked up): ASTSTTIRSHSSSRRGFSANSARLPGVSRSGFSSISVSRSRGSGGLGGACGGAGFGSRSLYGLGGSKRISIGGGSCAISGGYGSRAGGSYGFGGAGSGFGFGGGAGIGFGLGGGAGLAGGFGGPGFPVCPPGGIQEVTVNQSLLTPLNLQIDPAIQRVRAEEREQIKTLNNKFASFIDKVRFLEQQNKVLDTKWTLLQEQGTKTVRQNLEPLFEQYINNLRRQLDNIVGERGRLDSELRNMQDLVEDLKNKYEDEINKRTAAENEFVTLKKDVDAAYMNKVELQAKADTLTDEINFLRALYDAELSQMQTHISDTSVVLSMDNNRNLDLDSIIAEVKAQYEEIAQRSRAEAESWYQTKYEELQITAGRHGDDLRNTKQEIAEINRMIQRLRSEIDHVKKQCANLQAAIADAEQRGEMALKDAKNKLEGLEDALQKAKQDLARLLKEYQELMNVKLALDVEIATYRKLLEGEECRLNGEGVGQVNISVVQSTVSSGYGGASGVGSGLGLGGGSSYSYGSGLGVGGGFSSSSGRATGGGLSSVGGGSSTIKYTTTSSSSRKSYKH

RPS3 = RPS3 (human, UniProt P23396 2-243)
NUFIP2 = molecular target: T3, NUFIP2 (human, UniProt Q7Z417 1-695)
T3 construct: also called NP_065823.1
T3 sequence (looked up): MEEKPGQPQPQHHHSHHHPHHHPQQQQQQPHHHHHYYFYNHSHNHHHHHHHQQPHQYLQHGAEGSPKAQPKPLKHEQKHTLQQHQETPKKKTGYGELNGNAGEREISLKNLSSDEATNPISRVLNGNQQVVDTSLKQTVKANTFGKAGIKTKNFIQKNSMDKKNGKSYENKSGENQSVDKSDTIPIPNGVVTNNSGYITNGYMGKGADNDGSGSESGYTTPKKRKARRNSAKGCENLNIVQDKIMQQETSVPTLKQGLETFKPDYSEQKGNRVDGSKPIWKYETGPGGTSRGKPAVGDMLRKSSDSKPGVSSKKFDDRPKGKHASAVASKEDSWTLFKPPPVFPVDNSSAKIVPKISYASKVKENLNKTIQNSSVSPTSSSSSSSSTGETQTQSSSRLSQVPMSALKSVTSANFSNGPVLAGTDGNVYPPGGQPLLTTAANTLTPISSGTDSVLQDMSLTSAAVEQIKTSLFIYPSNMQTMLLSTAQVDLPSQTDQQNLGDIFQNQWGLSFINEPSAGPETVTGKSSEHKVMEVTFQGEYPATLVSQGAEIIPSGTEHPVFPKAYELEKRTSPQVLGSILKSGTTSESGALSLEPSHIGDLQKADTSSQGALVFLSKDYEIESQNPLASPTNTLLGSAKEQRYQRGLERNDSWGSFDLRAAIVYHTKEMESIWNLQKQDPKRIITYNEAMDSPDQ

MYH11 = molecular target: T4, MYH11 (human, UniProt P35749-3 1-1945, limits assumed)
T4 construct: also called NP_001035202.1 (+4)
T4 sequence (P35749 other isoform, or with tags, fused parts or gaps limits assumed): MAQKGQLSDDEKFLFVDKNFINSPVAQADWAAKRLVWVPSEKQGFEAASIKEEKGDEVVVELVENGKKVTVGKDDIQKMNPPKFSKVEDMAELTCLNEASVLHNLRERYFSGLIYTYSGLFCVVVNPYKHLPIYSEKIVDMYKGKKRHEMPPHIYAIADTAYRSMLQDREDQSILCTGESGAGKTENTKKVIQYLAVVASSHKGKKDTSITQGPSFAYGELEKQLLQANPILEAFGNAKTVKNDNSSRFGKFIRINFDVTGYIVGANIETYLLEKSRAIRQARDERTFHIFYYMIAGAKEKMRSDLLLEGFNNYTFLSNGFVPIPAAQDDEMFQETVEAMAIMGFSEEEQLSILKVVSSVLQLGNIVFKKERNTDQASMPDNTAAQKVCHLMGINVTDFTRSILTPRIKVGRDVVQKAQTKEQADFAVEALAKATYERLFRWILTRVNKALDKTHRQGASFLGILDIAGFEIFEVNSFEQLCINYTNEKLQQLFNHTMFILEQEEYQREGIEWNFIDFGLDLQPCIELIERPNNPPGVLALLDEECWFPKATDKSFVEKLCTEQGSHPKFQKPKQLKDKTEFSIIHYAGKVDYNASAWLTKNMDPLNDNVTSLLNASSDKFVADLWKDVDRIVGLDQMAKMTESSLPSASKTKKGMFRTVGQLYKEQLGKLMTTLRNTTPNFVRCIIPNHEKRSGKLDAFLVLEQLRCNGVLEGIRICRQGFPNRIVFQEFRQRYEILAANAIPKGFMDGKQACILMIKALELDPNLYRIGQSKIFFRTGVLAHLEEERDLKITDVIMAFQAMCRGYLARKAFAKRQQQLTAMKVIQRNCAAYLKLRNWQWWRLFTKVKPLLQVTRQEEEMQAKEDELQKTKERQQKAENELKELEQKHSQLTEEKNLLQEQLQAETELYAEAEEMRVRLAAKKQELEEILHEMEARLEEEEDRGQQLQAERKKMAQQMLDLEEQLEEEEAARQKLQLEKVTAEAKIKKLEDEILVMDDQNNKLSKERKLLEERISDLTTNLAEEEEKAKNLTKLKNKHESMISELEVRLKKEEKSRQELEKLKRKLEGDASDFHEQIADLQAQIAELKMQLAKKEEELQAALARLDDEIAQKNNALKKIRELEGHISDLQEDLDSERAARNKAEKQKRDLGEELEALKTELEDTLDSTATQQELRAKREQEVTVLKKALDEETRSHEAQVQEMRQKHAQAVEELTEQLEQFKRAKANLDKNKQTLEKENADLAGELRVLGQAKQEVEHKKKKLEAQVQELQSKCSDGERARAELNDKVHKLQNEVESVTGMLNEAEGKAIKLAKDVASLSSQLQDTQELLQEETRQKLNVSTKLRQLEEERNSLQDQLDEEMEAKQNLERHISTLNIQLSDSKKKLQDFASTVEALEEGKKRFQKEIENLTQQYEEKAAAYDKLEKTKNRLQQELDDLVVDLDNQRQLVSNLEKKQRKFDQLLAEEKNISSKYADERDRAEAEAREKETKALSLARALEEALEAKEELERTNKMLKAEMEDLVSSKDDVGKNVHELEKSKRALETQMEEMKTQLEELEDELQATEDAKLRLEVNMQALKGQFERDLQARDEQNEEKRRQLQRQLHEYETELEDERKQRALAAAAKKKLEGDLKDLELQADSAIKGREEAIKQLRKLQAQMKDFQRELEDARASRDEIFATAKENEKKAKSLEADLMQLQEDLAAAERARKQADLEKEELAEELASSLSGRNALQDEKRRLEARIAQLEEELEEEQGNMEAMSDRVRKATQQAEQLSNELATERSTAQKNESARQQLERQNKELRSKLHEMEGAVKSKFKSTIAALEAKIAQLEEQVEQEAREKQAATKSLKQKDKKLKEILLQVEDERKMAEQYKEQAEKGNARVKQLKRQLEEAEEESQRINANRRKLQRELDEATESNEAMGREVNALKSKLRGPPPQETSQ

T1 sequence (P17844 whole entry): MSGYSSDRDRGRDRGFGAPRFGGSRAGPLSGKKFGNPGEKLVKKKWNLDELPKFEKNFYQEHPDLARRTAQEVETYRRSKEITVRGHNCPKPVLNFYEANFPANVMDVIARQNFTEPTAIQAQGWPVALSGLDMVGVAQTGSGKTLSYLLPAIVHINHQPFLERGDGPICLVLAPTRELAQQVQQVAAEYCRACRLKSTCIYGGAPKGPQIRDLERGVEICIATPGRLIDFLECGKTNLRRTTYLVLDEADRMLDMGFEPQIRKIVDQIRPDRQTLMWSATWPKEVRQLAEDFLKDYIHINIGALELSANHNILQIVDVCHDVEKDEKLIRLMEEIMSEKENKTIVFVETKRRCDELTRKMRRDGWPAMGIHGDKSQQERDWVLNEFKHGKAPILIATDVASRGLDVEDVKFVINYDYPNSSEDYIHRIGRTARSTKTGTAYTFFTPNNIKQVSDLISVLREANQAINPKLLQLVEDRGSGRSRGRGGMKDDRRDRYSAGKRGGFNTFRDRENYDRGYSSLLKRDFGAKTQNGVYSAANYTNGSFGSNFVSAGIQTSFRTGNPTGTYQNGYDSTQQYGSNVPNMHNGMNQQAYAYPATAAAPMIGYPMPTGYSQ

- co-IP mass spectrometry count (DDX5): 22
- co-IP mass spectrometry count (FAU): 7
- co-IP mass spectrometry count (KRT6B): 331
- co-IP mass spectrometry count (RPS3): 23
- co-IP mass spectrometry count (NUFIP2): 5
- co-IP mass spectrometry count (MYH11): 7
B1: C-terminal FLAG tagged B3GNT2 (enzyme, human, UniProt Q9NY97 1-397, looked up)
chain: MSVGRRRIKLLGILMMANVFIYFIMEVSKSSSQEKNGKGEVIIPKEKFWKISTPPEAYWNREQEKLNRQYNPILSMLTNQTGEAGRLSNISHLNYCEPDLRVTSVVTGFNNLPDRFKDFLLYLRCRNYSLLIDQPDKCAKKPFLLLAIKSLTPHFARRQAIRESWGQESNAGNQTVVRVFLLGQTPPEDNHPDLSDMLKFESEKHQDILMWNYRDTFFNLSLKEVLFLRWVSTSCPDTEFVFKGDDDVFVNTHHILNYLNSLSKTKAKDLFIGDVIHNAGPHRDKKLKYYIPEVVYSGLYPPYAGGGGFLYSGHLALRLYHITDQVHLYPIDDVYTGMCLQKLGLVPEKHKGFRTFDIEEKNKNNICSYVDLMLVHSRKPQEMIDIWSQLQSAHLKC
notes: Overexpressed in cells and pulled down from the lysate with mouse anti-FLAG antibody; also called C-FLAG B3GNT2; C-term flag; not shown: C-terminal FLAG tag
